{
  "source": "paper PMC4930773",
  "about": "“Cataract-causing mutation S228P promotes βB1-crystallin aggregation and degradation by separating two interacting loops in C-terminal domain” (Protein & Cell, 2016)",
  "molecular_target": "T1, wild type βB1-crystallin (human, UniProt P53674 1-252)",
  "T1 construct": "human βB1-crystallin (CRYBB1), cloned from a human lens cDNA library into pET28a; no cleavage of the tag is described; also called WT βB1; WT; source: E. coli BL21 (DE3), purified (Ni-NTA, Superdex 200 gel filtration); not shown: His tag, N-terminal, kept",
  "T1 sequence (looked up)": "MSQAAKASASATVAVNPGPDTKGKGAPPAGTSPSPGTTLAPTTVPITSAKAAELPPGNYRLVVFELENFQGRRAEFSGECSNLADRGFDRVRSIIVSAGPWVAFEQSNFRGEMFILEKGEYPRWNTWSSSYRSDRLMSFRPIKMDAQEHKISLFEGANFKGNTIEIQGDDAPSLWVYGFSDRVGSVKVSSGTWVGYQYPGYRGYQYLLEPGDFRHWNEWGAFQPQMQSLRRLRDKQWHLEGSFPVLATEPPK",
  "assay": "SEC; equal molar homomers mixed and incubated at 37°C, aggregates removed by centrifugation; Superdex 200, buffer A (20 mmol/L sodium phosphate, 150 mmol/L NaCl, 1 mmol/L EDTA, 1 mmol/L DTT, pH 7.0), 30 µmol/L protein; SDS-PAGE of soluble and insoluble fractions alongside",
  "conditions": "both partners purified",
  "data": [
    {"binder": "βA3-crystallin (natural protein, human, UniProt P05813 1-215, looked up, source: E. coli BL21 (DE3), purified (Ni-NTA, Superdex 200 gel filtration)) METQAEQQELETLPTTKMAQTNPTPGSLGPWKITIYDQENFQGKRMEFTSSCPNVSERSFDNVRSLKVESGAWIGYEHTSFCGQQFILERGEYPRWDAWSGSNAYHIERLMSFRPICSANHKESKMTIFEKENFIGRQWEISDDYPSLQAMGWFNNEVGSMKIQSGAWVCYQYPGYRGYQYILECDHHGGDYKHWREWGSHAQTSQIQSIRRIQQ", "values": [
      {"measurement": "binding result", "result": "binds"}
    ]}
  ]
}
